Patent US11142588B2, “Polypeptides which bind C-X-C chemokine receptor type 4 (CXCR4) and methods of treating or reducing the risk of fibrosis and cancer” (AdAlta Limited, priority 2015, dated 2021)
Entries after “also recorded” stand apart in the source; their conditions may differ.

Key:
CXCR4 = CXCR4 (Homo sapiens, UniProt P61073); assay: β-arrestin BRET assay, antagonist mode with 100 nM SDF-1; format: cell-based; design: expressed in transfected cells; host or cells: HEK293FT
Source text: (FIGS. 3A-3F and 14) BRET was used in this study to assess the real-time kinetic profiles resulting from any consequent increase in proximity, building upon the previously validated monitoring of GPCR/β-arrestin interactions utilizing BRET. BRET occurs between a complementary Renilla luciferase (Rluc) variant as donor and green fluorescent protein variant as acceptor. Upon Rluc-catalyzed oxidation of the coelenterazine substrate (such as coelenterazine h for first generation BRET (BRET) or EnduRen for extended BRET (eBRET), energy is transferred to the acceptor if within 10 nm, resulting in acceptor light emission peaking at a characteristic wavelength. BRET (3-arrestin assays were carried out as described previously (See, H. B., Seeber, R. M., Kocan, M., Eidne, K. A. and Pfleger, K. D. (2011) ‘Application of G protein-coupled receptor-heteromer identification technology to monitor beta-arrestin recruitment to G protein-coupled receptor heteromers’, Assay Drug Dev Technol, 9(1), 21-30, 10.1089/adt.2010.0336). CXCR4/Rluc8 cDNA constructs were generated from plasmids containing the respective receptor cDNA tagged with Rluc kindly provided by Aron Chakera (Oxford University, United Kingdom). The β-arrestin 2/Venus cDNA construct was prepared previously from pCS2-Venus kindly provided by Atsushi Miyawaki (RIKEN Brain Science Institute, Wako-city, Japan). BRET technology in cells transiently expressing CXCR4/Rluc8 and β-arrestin2/Venus in the presence of 100 nM SDF-1 agonist was evaluated in the presence of the CXCR4 agonist SDF-1/CXCL12 and the i-bodies. HEK293FT cells were maintained at 37° C., 5% CO2 in Complete Media (Dulbecco's modified Eagle's medium containing 0.3 mg/mL glutamine, 100 IU/mL penicillin, and […] streptomycin; Gibco) supplemented with 10% fetal calf serum (FCS) and […] Geneticin (Gibco). Transfections were carried out 24 h after seeding using Genejuice (Novagen) according to manufacturer's instructions. Cells were harvested with 0.05% Trypsin-EDTA (Gibco). HEK293FT cells were transfected using FuGene6 (Promega). 5 μM coelenterazine h (Promega) in HBSS was used as the luciferase substrate solution. Cells were harvested 24 h post-transfection in HEPES-buffered phenol red-free Complete Medium containing 5% FCS and added to a poly-L-lysine-coated white 96-well plate (Nunc). Dose-response curves were generated using BRET, with medium in the plate being replaced with PBS containing […] coelenterazine h (Molecular Probes) and assays carried out immediately. For these assays, 48 h post-transfection, the plate was incubated at […], 5% CO2 for 2 h with […] EnduRen (Promega) to ensure substrate equilibrium was reached. All BRET measurements were taken at 37° C. using the VICTOR Light plate reader with Wallac 1420 software (PerkinElmer). Filtered light emissions were sequentially measured at 400-475 and 520-540 nm. The BRET signal was calculated by subtracting the ratio of 520-540 nm emission over 400-475 nm emission for a vehicle-treated cell sample from the same ratio for a second aliquot of the same cells treated with agonist (in this instance in the presence of SDF-1 or CXCL12) and i-body (ADCX-99, ADCX-272, ACDX-6, ACDX-306, ADCX-668) at various concentrations. Data are mean±S.E.M. of four independent experiments carried out in duplicate.
Binding of the i-bodies to CXCR4 were examined in a β-Arrestin BRET assay as described in See, Heng B et al (2011) Assay and Drug Development Technologies 9(1):21-30. The i-bodes were examined at ten concentrations with and without 100 nM SDF-1 with the addition of ‘vehicle’ and ‘SDF-1+vehicle’ controls in order to characterise if the i-bodies are agonist or antagonists of CXCR4 activity.

[1] = target: CCR5 positive lipoparticles (Homo sapiens, UniProt P51681); assay: Biacore SPR binding to CCR5 positive lipoparticles (off-target control)
[2] = Binding to null lipoparticles (off-target control)
Procedure: (FIGS. 2A-2C, 5A-5C, 11A-11D, 17A-17B) Kinetic binding analysis of selected i-bodies with immobilized CXCR4 lipoparticles were performed at 25° C. using Biacore T200 instrument (GE Healthcare, Uppsala, Sweden). Streptavidin immobilization was performed in 1×HBS-P+ running buffer (10 mM HEPES, 150 mM NaCl, 0.05% [v/v] Tween-20). Amine coupling kit (GE Healthcare) and the instructions therein were utilized for the attachment of Streptavidin (Sigma; diluted to 100 μg/mL in 10 mM sodium acetate buffer pH 4.5) in all four channels on the sensor chip surface simultaneously, resulting in >6,000 RU of Streptavidin being coupled (1 RU=1 pg protein/mm^2). All binding experiments involving lipoparticles were performed with 1×HBS/BSA (10 mM HEPES, 150 mM NaCl, 1 mg/mL BSA) as instrument running buffer. Biotinylated CXCR4 lipoparticles (Integral Molecular, Cat #LEV-101B; 3.6 U/mL as described in WO 2005/042695) were typically diluted 1 in 20 in the running buffer and immobilized onto a Streptavidin containing channel by injecting at […] for 1,800 sec resulting in captured response levels of greater than 2,500 RU. […] In order to determine binding kinetics, serial dilutions (three-fold) of i-bodies diluted in 1×HBS/BSA were injected over immobilized lipoparticles with the association and dissociation phases monitored for 60 sec and 600 sec, respectively. […]

CCR4 = target: T1, CCR4 (Homo sapiens, UniProt P51679); assay: PathHunter (DiscoverX) β-arrestin assay, CCR4; format: cell-based
T1 sequence (P51679 1-360): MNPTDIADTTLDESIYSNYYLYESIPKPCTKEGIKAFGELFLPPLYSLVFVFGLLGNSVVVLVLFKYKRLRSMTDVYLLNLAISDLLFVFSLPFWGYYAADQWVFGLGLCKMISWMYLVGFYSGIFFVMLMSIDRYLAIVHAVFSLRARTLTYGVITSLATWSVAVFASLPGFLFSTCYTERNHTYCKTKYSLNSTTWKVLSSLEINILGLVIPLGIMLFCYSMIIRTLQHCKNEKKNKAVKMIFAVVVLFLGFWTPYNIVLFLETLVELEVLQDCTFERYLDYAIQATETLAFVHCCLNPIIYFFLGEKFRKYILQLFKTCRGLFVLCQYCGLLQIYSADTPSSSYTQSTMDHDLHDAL
Procedure: (FIG. 9) The PathHunter® β-Arrestin assay (DiscoveRx) was performed according to the manufacturer's protocol. Cells were seeded into white walled, 384-well tissue culture-treated microplates (Corning) and normalized at 5,000 cells (or 10,000 cells for CXCR4) in a total volume of […]. Cell growth was at 37° C. (5% CO2, 95% relative humidity). […] Agonists were then added at the EC80 concentration and incubation was continued at 37° C. for 90 min (or 180 min for CCR1). Assay signal was generated through a single addition of 15 μL (50% v/v) of PathHunter Detection reagent cocktail, followed by 1 h incubation at room temperature. Microplates were read following signal generation with a PerkinElmer Envision instrument for chemiluminescent signal detection of relative light units (RLU).

Chain of CXCR4 (P61073 whole entry): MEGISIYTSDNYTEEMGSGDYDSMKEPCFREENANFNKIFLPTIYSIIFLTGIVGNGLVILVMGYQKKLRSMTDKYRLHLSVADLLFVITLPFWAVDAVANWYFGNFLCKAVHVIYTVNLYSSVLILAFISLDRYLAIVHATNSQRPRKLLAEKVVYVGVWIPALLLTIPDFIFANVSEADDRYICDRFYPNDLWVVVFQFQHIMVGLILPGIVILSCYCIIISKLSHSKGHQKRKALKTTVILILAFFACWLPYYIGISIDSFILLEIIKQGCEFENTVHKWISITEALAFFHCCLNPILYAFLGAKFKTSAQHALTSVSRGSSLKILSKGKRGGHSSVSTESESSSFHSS
Chain of CCR5 positive lipoparticles (P51681 whole entry): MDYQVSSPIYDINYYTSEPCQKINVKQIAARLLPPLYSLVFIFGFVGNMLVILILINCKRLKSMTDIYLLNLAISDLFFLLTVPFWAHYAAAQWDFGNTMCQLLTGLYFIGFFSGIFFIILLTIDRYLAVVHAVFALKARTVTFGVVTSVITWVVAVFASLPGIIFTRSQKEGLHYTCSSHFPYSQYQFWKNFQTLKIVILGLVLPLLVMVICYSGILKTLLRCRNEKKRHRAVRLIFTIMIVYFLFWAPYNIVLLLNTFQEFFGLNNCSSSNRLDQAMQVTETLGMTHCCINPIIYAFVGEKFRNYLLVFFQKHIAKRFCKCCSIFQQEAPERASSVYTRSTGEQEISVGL

β-arrestin activity (CXCR4; various concentrations): some degree of inhibition | CCR4 activity (CCR4): 34%
B1: ADCX-99: CXCR4 binding i-body, SEQ ID NO: 11, parent of affinity matured binders (protein)
chain: LQVDIVPSQGEISVGESKFFLCQVAGSGSDIRISWFSPNGEKLTPNQQRISVVWNDDSSSTLTIYNANIDDAGIYKCVVYRTGGYRHRALVLGEATVNVKIFQ
modifications: ADCX-99 protein sequence
IC50 (nM) in β-Arrestin BRET assay (Antagonist mode in the presence of 100 nM SDF-1) (CXCR4): very weak effect; also recorded: No activity | binding to CCR5 positive lipoparticles [1]: did not bind; also recorded: very little binding | binding to null lipoparticles [2]: did not bind; also recorded: very little binding
